Experimental data: patent US20100322897A1

Target: human IL-17 receptor (IL-17R) on primary human bronchial epithelial (HBE) cells (human) (UniProt Q96F46)
Assay: cell-based or functional assay

| Substance | inhibition of DEFB104 mRNA upregulation by 100 ng/ml IL-17A in HBE cells after preincubation with 2 ug/ml anti-IL-17R antibody [%] | inhibition of DEFB104 mRNA upregulation by 100 ng/ml IL-17F in HBE cells after preincubation with 2 ug/ml anti-IL-17R antibody [%] |
| --- | --- | --- |
| IL-17A (R&D Systems) (from UniProt Q16552 20-155) (ligand) | 62.5 |  |
| human IL-17F (R&D Systems) (from UniProt Q96PD4 31-163) (ligand) |  | 77.6 |
